This is an account of results in PMC2905418, “High-affinity consensus binding of target RNAs by the STAR/GSG proteins GLD-1, STAR-2 and Quaking”.

As a reminder, the Ki is the dissociation constant of the complex between target and ligand, obtained from inhibition or displacement. Usually Kd stands for the constant that tells how readily two partners part at equilibrium.

Series [1] deals with STAR-2-STAR (C. elegans). Kind of series: competition FP. To be noted: probe TGE; 10 mM Tris pH 8.0, 25 mM NaCl, 0.1 mM EDTA, 0.1 mg/mL tRNA, 5 ug/mL heparin, 0.01% IGEPAL CA630, room temperature, 3 h; EMSA gel 6% native, 0.5x TBE, 4 C. For orientation: Mobility shift assays separate free from complexed probe on a gel.
Series [2] deals with T1, GLD-1-STAR (C. elegans, UniProt Q17339 135-336).
T1 sequence: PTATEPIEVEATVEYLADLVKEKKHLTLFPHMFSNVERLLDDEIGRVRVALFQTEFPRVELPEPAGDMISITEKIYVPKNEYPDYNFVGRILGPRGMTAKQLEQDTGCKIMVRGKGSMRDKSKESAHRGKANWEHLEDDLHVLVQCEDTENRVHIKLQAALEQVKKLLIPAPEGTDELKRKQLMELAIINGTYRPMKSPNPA
Description: competition FP. The following applies: probe TGE; 10 mM Tris pH 8.0, 25 mM NaCl, 0.1 mM EDTA, 0.1 mg/mL tRNA, 5 ug/mL heparin, 0.01% IGEPAL CA630, room temperature, 3 h; EMSA gel 6% native, 0.5x TBE, 4 C.

In series [3] the test system is STAR-2-STAR (C. elegans). Description: fluorescence polarization. To be noted: 10 mM Tris pH 8.0, 25 mM NaCl, 0.1 mM EDTA, 0.1 mg/mL tRNA, 5 ug/mL heparin, 0.01% IGEPAL CA630, room temperature, 3 h; EMSA gel 6% native, 0.5x TBE, 4 C. For orientation: Fluorescence polarisation rises when a labelled molecule tumbles more slowly, as on binding a larger partner.
Series [4] has as its system STAR-2-STAR (C. elegans). Kind of series: EMSA. The following applies: 10 mM Tris pH 8.0, 25 mM NaCl, 0.1 mM EDTA, 0.1 mg/mL tRNA, 5 ug/mL heparin, 0.01% IGEPAL CA630, room temperature, 3 h; EMSA gel 6% native, 0.5x TBE, 4 C.
Series [5] addresses T1, GLD-1-STAR. Description: competition FP; probe TGE; 10 mM Tris pH 8.0, 25 mM NaCl, 0.1 mM EDTA, 0.1 mg/mL tRNA, 5 ug/mL heparin, 0.01% IGEPAL CA630, room temperature, 3 h; EMSA gel 6% native, 0.5x TBE, 4 C. The following applies: protein: recombinant, tags: MBP fusion, chain copies: 2.
Series [6] addresses T2, Qk-1-STAR (mouse, UniProt Q9QYS9 7-214).
T2 sequence: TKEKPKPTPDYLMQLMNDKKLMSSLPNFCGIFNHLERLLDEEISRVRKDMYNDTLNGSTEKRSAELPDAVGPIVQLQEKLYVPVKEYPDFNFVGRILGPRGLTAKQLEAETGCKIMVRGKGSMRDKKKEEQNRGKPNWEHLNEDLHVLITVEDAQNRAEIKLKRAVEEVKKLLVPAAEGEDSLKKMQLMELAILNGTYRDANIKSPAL
Kind of series: EMSA; second shift (K2); 10 mM Tris pH 8.0, 25 mM NaCl, 0.1 mM EDTA, 0.1 mg/mL tRNA, 5 ug/mL heparin, 0.01% IGEPAL CA630, room temperature, 3 h; EMSA gel 6% native, 0.5x TBE, 4 C. To be noted: protein: recombinant; tags: MBP fusion; chain copies: 2; label: 5' 32P.

Series [7] addresses T2, Qk-1-STAR. Kind of series: EMSA; first shift (K1); 10 mM Tris pH 8.0, 25 mM NaCl, 0.1 mM EDTA, 0.1 mg/mL tRNA, 5 ug/mL heparin, 0.01% IGEPAL CA630, room temperature, 3 h; EMSA gel 6% native, 0.5x TBE, 4 C. To be noted: protein: recombinant; tags: MBP fusion; chain copies: 2; label: 5' 32P.
Series [8] has as its target T2, Qk-1-STAR. Kind of series: competition FP; probe C21A TGE; 10 mM Tris pH 8.0, 25 mM NaCl, 0.1 mM EDTA, 0.1 mg/mL tRNA, 5 ug/mL heparin, 0.01% IGEPAL CA630, room temperature, 3 h; EMSA gel 6% native, 0.5x TBE, 4 C. The following applies: protein: recombinant; tags: MBP fusion; chain copies: 2.
Series [9] deals with T2, Qk-1-STAR. Description: EMSA; 10 mM Tris pH 8.0, 25 mM NaCl, 0.1 mM EDTA, 0.1 mg/mL tRNA, 5 ug/mL heparin, 0.01% IGEPAL CA630, room temperature, 3 h; EMSA gel 6% native, 0.5x TBE, 4 C. The following applies: protein: recombinant, tags: MBP fusion, chain copies: 2.
The target in series [10] is T1, GLD-1-STAR. Kind of series: competition FP; probe TGE; 10 mM Tris pH 8.0, 25 mM NaCl, 0.1 mM EDTA, 0.1 mg/mL tRNA, 5 ug/mL heparin, 0.01% IGEPAL CA630, room temperature, 3 h; EMSA gel 6% native, 0.5x TBE, 4 C. To be noted: protein: recombinant; tags: MBP fusion; chain copies: 2.
Series [11] has as its target T2, Qk-1-STAR. Description: fluorescence polarization; 10 mM Tris pH 8.0, 25 mM NaCl, 0.1 mM EDTA, 0.1 mg/mL tRNA, 5 ug/mL heparin, 0.01% IGEPAL CA630, room temperature, 3 h; EMSA gel 6% native, 0.5x TBE, 4 C. To be noted: protein: recombinant; tags: MBP fusion; chain copies: 2; label: 5' 32P (EMSA), 5' fluorescein (FP).
Series [12] has as its target T1, GLD-1-STAR. The series is described as above. The following applies: protein: recombinant; tags: MBP fusion; chain copies: 2; label: 5' 32P (EMSA), 5' fluorescein (FP).
Series [13] has as its target T1, GLD-1-STAR. Description: competition FP; slightly tighter than WT 12-mer; 10 mM Tris pH 8.0, 25 mM NaCl, 0.1 mM EDTA, 0.1 mg/mL tRNA, 5 ug/mL heparin, 0.01% IGEPAL CA630, room temperature, 3 h; EMSA gel 6% native, 0.5x TBE, 4 C. To be noted: protein: recombinant; tags: MBP fusion; chain copies: 2.
The target of series [14] is T1, GLD-1-STAR. Description: fluorescence polarization; slightly tighter than WT TGE; 10 mM Tris pH 8.0, 25 mM NaCl, 0.1 mM EDTA, 0.1 mg/mL tRNA, 5 ug/mL heparin, 0.01% IGEPAL CA630, room temperature, 3 h; EMSA gel 6% native, 0.5x TBE, 4 C. To be noted: protein: recombinant; tags: MBP fusion; chain copies: 2; label: 5' 32P (EMSA), 5' fluorescein (FP).
The mark [15] stands for this setting: label: 5' 32P (EMSA), 5' fluorescein (FP).

Turning to “AUCUAAUCAUAU [C19A 12-mer (WT background)]”, in the series with STAR-2-STAR (C. elegans) [1], the IC50 ratio, WT half-site vs mutant probe (IC50 WT half-site/C19A) was found to be 4.2.
poly-U, two hexamers, 4-nt spacing: the inhibition constant Ki in the series with GLD-1-STAR [2] was determined as 12.2 nM.
As to “AUCUACUAAUAU [C21A (A21) half-site 12-mer]”, in the series on STAR-2-STAR (C. elegans) [1], the IC50 ratio (IC50 TGE/C21A 12-mer) is 2.7 and the IC50 ratio, WT half-site vs mutant probe (IC50 WT half-site/C21A) came to 20.
poly-U, two hexamers, 2-nt spacing: the Ki with GLD-1-STAR [2] was 22.7 nM.
On to poly-U, two hexamers, 12-nt spacing, for which the Ki in the series with GLD-1-STAR [2] came to 4.8 nM.
Consider poly-U, two hexamers, 0-nt spacing, for which the Ki with GLD-1-STAR [2] was 25.3 nM.
Regarding “UAUUUAAUUUCUUAUCUACUCAUAUCUA [WT TGE 28-mer]”, the Kd with STAR-2-STAR (C. elegans) [3] was found to be 40 nM; in the series on STAR-2-STAR (C. elegans) [4], 36 nM.
Turning to “AUCUACUCAUAU [WT TGE half-site 12-mer (14-25; A21C in the A21 background)]”, the IC50 ratio (IC50 TGE/WT half-site) in the series on STAR-2-STAR (C. elegans) [1] is 0.13.
Consider “UAUUUAAUUUCUUAUCUACUAAUAUCUA [C21A TGE 28-mer]”, for which the Kd was determined as 5 nM in the series with STAR-2-STAR (C. elegans) [3] and 1.2 nM in the series with STAR-2-STAR (C. elegans) [4].
For poly-U, one hexamer at 5' end, the Ki in the series with GLD-1-STAR [2] was 110 nM.

B1: TGE 14-35 (ssRNA)
RNA: AUCUACUCAUAUCUACUCAUAU
On to B1, for which the Ki with GLD-1-STAR [5] came to 4.6 ± 0.8 nM.

B2: MBP:2-3'm2 (ssRNA)
RNA: GACACACUAACCUCGGUGGAAACUCUUACAU
With B2, the dissociation constant (Kd) with Qk-1-STAR [6] came out at 199 nM; with Qk-1-STAR [7], 69 nM.

B3: C19A 12-mer (A21 background) (ssRNA)
RNA: AUCUAAUAAUAU
As for B3, in the series with Qk-1-STAR [8], the binding result is given as “no binding”.

B4: TGE 46-67 (ssRNA)
RNA: AUCUACUCAUAUCUAAUCGUCC
In the case of B4, the Ki with GLD-1-STAR [5] amounted to 10.7 ± 2 nM.

B5: MBP:2-5'm1 (ssRNA)
RNA: GACACUCGGUGCUCGGUGGAAAAAUAACCAU
In the case of B5, in the series with Qk-1-STAR [9] (label: 5' 32P, predicted secondary structure (mfold)), the equilibrium dissociation constant (Kd) is 498 nM.

B6: TGE 1-18 (ssRNA)
RNA: UAUUUAAUUUCUUAUCUA
Consider B6, for which the binding signal with GLD-1-STAR [10] stood at 42 fold weaker than TGE.

B7: TGE 56-67 (ssRNA)
RNA: AUCUAAUCGUCC
For the molecule B7, in the series with GLD-1-STAR [10], the binding signal worked out at 32 fold weaker than TGE.

B8: WT TGE half-site 12-mer (14-25; A21C in the A21 background) (ssRNA)
RNA: AUCUACUCAUAU
For the molecule B8, in the series with GLD-1-STAR [10], the binding signal was roughly 9 fold weaker than TGE. Besides, in the series with Qk-1-STAR [8], the binding result was “no binding”.

B9: WT TGE 28-mer (ssRNA)
RNA: UAUUUAAUUUCUUAUCUACUCAUAUCUA
On to B9, for which the Kd with Qk-1-STAR [9] (setting [15]) was determined as 49 ± 2 nM; with Qk-1-STAR [11], 63 ± 4 nM; in the series with GLD-1-STAR [12], 32 ± 3 nM. In addition, the inhibition constant (Ki) in the series with GLD-1-STAR [5] (setting [15]) was 11.1 ± 4 nM.

B10: C21A TGE 5' mutant (ssRNA)
RNA: UAUUCUCUUUCUUAUCUACUAAUAUCUA
B10: in the series with Qk-1-STAR [9] (label: 5' 32P), the Kd was 7.1 ± 1 nM.

B11: C21A (A21) half-site 12-mer (ssRNA)
RNA: AUCUACUAAUAU
For B11, in the series with GLD-1-STAR [13], the binding result is “binds”. Also, the Ki with Qk-1-STAR [8] was determined as 46 nM.

B12: MBP:2 (WT) (ssRNA)
RNA: GACACACUAACCUCGGUGGAAAAAUAACCAU
Consider B12, for which the Kd came out at 269 ± 122 nM in the series with Qk-1-STAR [6] and 24.5 ± 5 nM with Qk-1-STAR [7].

B13: MBP:2-5'm2 (ssRNA)
RNA: GACACUCUCUCCUCGGUGGAAAAAUAACCAU
As for B13, in the series with Qk-1-STAR [9] (label: 5' 32P), the dissociation constant (Kd) turned out to be 100 nM.

B14: poly-U 28-mer (ssRNA)
RNA: UUUUUUUUUUUUUUUUUUUUUUUUUUUU
B14: the binding result with GLD-1-STAR [5] was “no binding”.

B15: C21A TGE 28-mer (ssRNA)
RNA: UAUUUAAUUUCUUAUCUACUAAUAUCUA
Take B15: the Kd with Qk-1-STAR [9] (setting [15]) was 1.2 ± 0.2 nM; in the series with Qk-1-STAR [11], 13 ± 2 nM. For the same molecule, the binding result with GLD-1-STAR [14] is “binds”.
